This test addresses mouse ANKRD16^3xArg (recombinant) (mouse) (UniProt A2AS55). In words: SwitchSENSE.

With “mouse AlaRS^A734E (recombinant, SwitchSENSE and biochemical assays) (from UniProt Q8BGQ7 1-968) (enzyme)”, the fold change in affinity against wild type ANKRD16 is 2 fold.

These data come from publication PMC5973781.
